Results: the supplement of paper PMC7125110
± gives the standard error. This sample holds only a part of the variants without activity.

B1: glmS ribozyme (parent)
chain: AUAAAAGCGCCAGAACUACAGAAAUGUAGUUGACGAGGAGGAGGUUUAUCGAAUUUUCGGCGGAUGCCUCCAAA

How the values were obtained:
Details in all cases: with glucosamine-6-phosphate
[1] = variants of: B1; test: self-cleavage kobs at 640 uM GlcN6P; higher = faster cleavage; RNA array
Procedure, shortened: (§1)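 Over ~14 h at 37 °C, tiles were imaged as glucosamine-6-phosphate (40 μM to 10 mM) in HEPES/KCl/Mg(OAc)2 buffer flowed across sequenced MiSeq chips. The chips carried barcoded ribozyme variants transcribed in situ by E. coli RNA polymerase and tracked with a hybridised Cy3 probe. After normalisation to baseline and to non-cleaving reference variants, one- or two-exponential decay fits of per-tile medians gave kobs. kcat and KM followed from weighted Michaelis–Menten fits across concentrations.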

[2] = variants of: B1; test: self-cleavage kobs at 2500 uM GlcN6P; higher = faster cleavage; RNA array
Procedure, shortened: as §1

[3] = variants of: B1; test: self-cleavage kobs at 10000 uM GlcN6P; higher = faster cleavage; RNA array
Procedure, shortened: as §1

Variant	self-cleavage kobs at 640 uM GlcN6P [1] [s⁻¹]	self-cleavage kobs at 2500 uM GlcN6P [2] [s⁻¹]	self-cleavage kobs at 10000 uM GlcN6P [3] [s⁻¹]
G32A A53G U56G	7.56e-05 ± 2.8e-05	0.000272 ± 8.6e-05	–
U30C A36C G40U	< 1e-05	< 1e-05	–
C10U C16U C71G	6.17e-05 ± 2.9e-05	–	–
A6U A14G G60C	< 1e-05	–	–
G9U G40C C50G	< 1e-05	< 1e-05	–
C11A G40C C50U	< 1e-05	< 1e-05	–
A6G C50U C61U	< 1e-05	< 1e-05	–
G13U G38U	< 1e-05	–	–
A36C G43U G60U	< 1e-05	–	–
A42U G59C G60A	< 1e-05	–	–
G40U U65G G66A	9.33e-05 ± 1.9e-05	0.000269 ± 8.2e-05	–
C11A G13U C58A G62C	< 1e-05	–	–
G13U A36G U47C	< 1e-05	–	–
G29C C58U U69A	5.92e-05 ± 2.8e-05	–	–
C11U U54G G59A	0.00194 ± 0.00054	0.00627 ± 0.002	–
G7U C71A	< 1e-05	–	< 1e-05
A6U A15G A48U	< 1e-05	–	–
G9U G29U C34A G41U U57G G59A	< 1e-05	< 1e-05	–
G7A A33C G66C	< 1e-05	–	–
G7U G38C U45C C70G	< 1e-05	–	–
U55G G66A C70G	0.000126 ± 2.1e-05	0.000206 ± 4.7e-05	–
G32A U69A C70G	4.23e-05 ± 1.9e-05	–	–
U30A U45G	0.000279 ± 6.7e-05	0.000752 ± 0.00013	–

Variant	self-cleavage kobs at 640 uM GlcN6P [1] [s⁻¹]	self-cleavage kobs at 2500 uM GlcN6P [2] [s⁻¹]	self-cleavage kobs at 10000 uM GlcN6P [3] [s⁻¹]
U30G U49A G66C	< 1e-05	–	–
C11A C50U G59C	< 1e-05	< 1e-05	–
A15U U49C C68G	0.00159 ± 0.00057	–	–
C10U G41C G44U U55C C58U	< 1e-05	–	–
G29U C67U C70U	4.16e-05 ± 1.2e-05	9.35e-05 ± 1.8e-05	–
C8G G9U A52U	< 1e-05	< 1e-05	–
C10A A12U G29A A39G A52G C67G	0.000283 ± 8.4e-05	0.000236 ± 7.4e-05	–
G29C U56A C58A G63U	< 1e-05	< 1e-05	–
A12U C16U G43U	4.04e-05 ± 1.7e-05	7.33e-05 ± 1.4e-05	–
G41C G59U C70G	3.61e-05 ± 1.7e-05	0.000118 ± 3.1e-05	0.000122 ± 2.1e-05
G44U C58A G59U	< 1e-05	< 1e-05	–
G44C U56C G59U	< 1e-05	< 1e-05	–
G29A G35C A48G	< 1e-05	–	–
C16U U45A C70G	0.000277 ± 6e-05	0.000385 ± 9.2e-05	–
A39G G51A	< 1e-05	< 1e-05	–
A15U U30G U69A	0.000116 ± 2.5e-05	0.000105 ± 2.9e-05	–
A12C C16A A33U	< 1e-05	–	–
A14C G40U U56G U65A C71U	0.000351 ± 6.7e-05	0.00117 ± 0.00023	–
C58G C68U C71G	5.51e-05 ± 2.4e-05	–	–
A12G A48C C68G	< 1e-05	< 1e-05	–
G63C G66U	< 1e-05	< 1e-05	< 1e-05
A14U U30C U49A C50A C70G	8.96e-05 ± 2.3e-05	–	–
G7A G44U C67G	< 1e-05	–	–

Variant	self-cleavage kobs at 640 uM GlcN6P [1] [s⁻¹]	self-cleavage kobs at 2500 uM GlcN6P [2] [s⁻¹]	self-cleavage kobs at 10000 uM GlcN6P [3] [s⁻¹]
G13C G40U G60U	< 1e-05	–	< 1e-05
A36C G38C G60C U65A	< 1e-05	–	–
G13A G41A C50U G51U C67U	< 1e-05	–	–
C8G G29A G51C G59U	< 1e-05	–	–
C11A G41A U49G G63U	< 1e-05	< 1e-05	–
C8G G35A C70G	< 1e-05	–	–
G9U G40U U47G U65A	< 1e-05	< 1e-05	–
A12U A53G U56C	0.00708 ± 0.0025	0.0149 ± 0.0066	–
A14C C34A U46A	< 1e-05	–	–
C11G G13U G29A G66A	< 1e-05	–	–
U46A C70G	0.000146 ± 4.1e-05	0.00037 ± 0.00011	0.000156 ± 3.1e-05
G13A A52C G63U	< 1e-05	–	–
C10G G66U	< 1e-05	< 1e-05	< 1e-05
G60U C67G C68U C70G	< 1e-05	–	–
A6U G35A C70U	< 1e-05	–	–
C34U C50G U54A	0.000235 ± 6.6e-05	0.000344 ± 0.0001	–
A15U A36C G44U C58G G59C C61U G63U U69A	< 1e-05	–	–
A14G C16G A39U A52C	< 1e-05	–	–
C10G U55A U57A	< 1e-05	–	–
C11A A36U U47C	< 1e-05	< 1e-05	–
U30A A53U C67G	6.37e-05 ± 2.6e-05	4.68e-05 ± 2.2e-05	0.000271 ± 6.3e-05
